Target: GFP Pavarotti co-expressed with exogenous Trc (greater pool phosphorylated at S745) (D. melanogaster)
Assay: co-IP; GFP Pavarotti (WT, S745A, or WT with co-expressed Trc) over-expressed in HEK 293 FT cells; lysate in coIP buffer (50 mM Tris pH 7.5, 150 mM NaCl, 1.5% Triton X-100, 1 mM EDTA, 1 mM NaVO3); precipitated with GFP-Trap-M (single chain anti-GFP) beads, washed 3x; blot for endogenous 14-3-3

“endogenous 14-3-3 ξ (HEK 293 FT cells) (from UniProt P63104 1-245) (natural protein)” was tested, and the increase of the co-precipitated interaction against GFP Pavarotti without Trc was 60%.
